In publication doi:10.1101/2021.10.18.464377:
Values joined by “and” are separate entries in the source; they are usually repeats but may differ in a detail not shown here. Identical values can stand only once.

Molecular target: Synaptotagmin 2 K60A expressed in PC12 or HEK 293 cells (UniProt P29101)
Test: immunostaining of cells or tissue

UniProt P29101, sequence (P29101 whole entry K60A): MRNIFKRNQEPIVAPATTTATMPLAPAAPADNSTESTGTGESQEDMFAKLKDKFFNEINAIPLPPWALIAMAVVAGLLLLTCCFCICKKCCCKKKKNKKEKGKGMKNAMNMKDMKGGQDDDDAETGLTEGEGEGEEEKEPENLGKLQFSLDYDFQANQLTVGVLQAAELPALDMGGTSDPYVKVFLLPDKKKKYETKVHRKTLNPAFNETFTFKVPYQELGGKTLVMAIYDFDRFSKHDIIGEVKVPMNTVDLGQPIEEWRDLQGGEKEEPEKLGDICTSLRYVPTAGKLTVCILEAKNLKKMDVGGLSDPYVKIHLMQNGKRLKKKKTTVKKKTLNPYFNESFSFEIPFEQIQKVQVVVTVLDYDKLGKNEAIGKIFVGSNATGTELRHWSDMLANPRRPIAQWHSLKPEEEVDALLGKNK

“Botulinum neurotoxin serotype B (B1 Okra strain) with non-toxic accessory proteins (complex)” was tested. Which decrease of BoNT/B binding against SYT2-WT did it give?
The decrease of BoNT/B binding against SYT2-WT was 64% and 69%.
